Assay results published in the DeepSol protein solubility set.

Assay: soluble on expression in E. coli; label from the status in PepcDB or PDB records

| Sequence | soluble on expression in E. coli |
| --- | --- |
| MSSRKRGITPSRDQVRRKKLSIEETDSIEVVCRLCPYTGSTPSLIAIDEGSIQTVLPPAQFRRENAPQVEKVFRFGRVFSENDGQATVFERTSVDLILNLLKGQNSLLFTYGVTGSGKTYTMTGKPTETGTGLLPRTLDVIFNSINNRVEKCIFYPSALNTFEIRATLDAHLKRHQMAADRLSTSREITDRYCEAIKLSGYNDDMVCSVFVTYVEIYNNYCYDLLEDARNGVLTKREIRHDRQQQMYVDGAKDVEVSSSEEALEVFCLGEERRRVSSTLLNKDSSRSHSVFTIKLVMAPRAYETKSVYPTMDSSQIIVSQLCLVDLAGSERAKRTQNVGERLAEANSINQSLMTLRQCIEVLRRNQKSSSQNLEQVPYRQSKLTHLFKNYLEGNGKIRMVICVNPKPDDYDENMSALAFAEESQTIEVKKQVERMPSERIPHSFFTQWNSELDGSVRMEDDGSREIPCPPTFCLTDCNDKDTVDSMYKYARKLSSLQNSSEEGPSSTLLTMIRQYMMEADYQRVEIARLKDSLNDKDEEIKKLRGFCSRYKRENASMKERIASCEQGEQENALVMEKLMEQKMEDRKIIQSQKKAMRNVRGIIDNPSPSVASLRSRFDQENVAHPTAPIQTPPPPYQTPGRAPVFKKRLEATTSTTVMSGSSSGGSGQQGYVNPKYQRRSKSASRLLDHQPLHRVPTGTVLQSRTPANAIRTTKPEMHQLNKSGEYRLTHQEVDDEGNISTNIVKGNVIPTVSGGTAVFFNDIERLTHESPSTRK | not soluble |
| MSSSHLAERHAFSDLSLLSEALAQSVTVTLRNAIERYGKASLVVPGGHTPVVYLPRLAQMDLPWQQVFITLSDERWVEPTSEQSNERLVREHFLQHMQQQPHFIALKTGHIHPDQAITDIDARLAELPQPFSLVILGLGEDGHIASLFPGMALNPDTTSLCQTATPPAAPSLRISLSLHALINSDRIILVITGKEKRQLIDRLIESPDQNIPFVRLMQFKPVELFETD | not soluble |
| MSSTPQFLRWYEQNKPVPYRSVLQEKFEPGQTLIVKGSTIDESQRFTINLHSKTADFSGNDVPLHVSVRFDEGKIVLNSFSNGEWGKEERKSNPIKKGDSFDIRIRAHDDRFQIIVDHKEFKDYEHRLPLSSISHLSIDGDLYLNHVHWGGKYYPVPYESGLANGLPVGKSLLVFGTVEKKAKRFHVNLLRKNGDISFHFNPRFDEKHVIRNSLAANEWGNEEREGKNPFEKGVGFDLVIQNEEYAFQVFVNGERYISFAHRADPHDIAGLQISGDIELSGIQIQ | not soluble |
| MSSVSEVNVDIKDFLMSINLEQYLLHFHESGFTTVKDCAAINDSLLQKIGISPTGHRRRILKQLQIILSKMQDIPIYANVHKTKKNDDPSKDYHVPSSDQNICIELSNSGSVQTSSPPQLETVRKNLEDSDASVERSQYPQSDDKLSPPKRDFPTAEEPHLNLGSLNDSLFGSDNIKIESLITKKTVDHTVEEQQTEKVKLITENLSKLPNADSECLSFVGCSTSGTNSGNGTNGLLEGSPPSPFFKFQGEMIVNDLYVPSSPILAPVRSRSKLVSRPSRSFLLRHRPVPEIPGSTKGVSGSYFRERRNVATSTEKSVAWQNSNEENSSSIFPYGETFLFQRLENSKKRSIKNEFLTQGEALKGEAATATNSFIIKSSIYDNRKEKISEDKVEDIWIPREDKNNFLIDTASESEYSTVEECFQSLRRKNSKASKSRTQKALILDSVNRHSYPLSSTSGNADSSAVSSQAISPYACFYGASAKKVKSGWLDKLSPQGKRMFQKRWVKFDGLSISYYNNEKEMYSKGIIPLSAISTVRVQGDNKFEVVTTQRTFVFRVEKEEERNDWISILLNALKSQSLTSQSQAVVTPEKCGYLELRGYKAKIFTVLSGNSVWLCKNEQDFKSGLGITIIPMNVANVKQVDRTVKQSFEIITPYRSFSFTAETEKEKQDWIEAVQQSIAETLSDYEVAEKIWFNESNRSCADCKAPDPDWASINLCVVICKKCAGQHRSLGPKDSKVRSLKMDASIWSNELIELFIVIGNKRANDFWAGNLQKDEELHMDSPVEKRKNFITQKYKEGKFRKTLLASLTKEELNKALCAAVVKPDVLETMALLFSGADVMCATGDPVHSTPYLLAKKAGQSLQMEFLYHNKFSDFPQHDIHSEGVLSQESSQSTFLCDFLYQAPSAASKLSSEKKLLEETNKKWCVLEGGFLSYYENDKSTTPNGTININEVICLAIHKEDFYLNTGPIFIFEIYLPSERVFLFGAETSQAQRKWTEAIAKHFVPLFAENLTEADYDLIGQLFYKDCHALDQWRKGWFAMDKSSLHFCLQMQEVQGDRMHLRRLQELTISTMVQNGEKLDVLLLVEKGRTLYIHGHTKLDFTVWHTAIEKAAGTDGNALQDQQLSKNDVPIIVNSCIAFVTQYGLGCKYIYQKNGDPLHISELLESFKKDARSFKLRAGKHQLEDVTAVLKSFLSDIDDALLTKELYPYWISALDTQDDKERIKKYGAFIRSLPGVNRATLAAIIEHLYRVQKCSEINHMNAHNLALVFSSCLFQTKGQTSEEVNVIEDLINNYVEIFEVIILYPALVKMVIMSLFANKYLCC | soluble |
| MSSWAKVIYGASTELDAKVVELNVGGQFYTTTMGTLMKHPGSKFSEILSRSARHYKDAQGRFFIDRPGTYFGLLLDYLRTGQVPTEYVPEVYQEAKFYQIHLLVKILEDMPQIFGEQVARTQFLMGVPNYRENLEVLLHLARAEAVAMRSSKVVVCVVRTEEEDAKCVKPLHILEAKKTPVVKFGPWKAGPMTEDFVCCLEKDIRAKGYKVTSQRYYLSRDPYTCFWIFVFTWW | not soluble |
| MSTGVKANDVKTKTKGADLVVDCLIKQGVTHVFGIPGAKIDSVFDVLQERGPELIVCRHEQNAAFMAAAIGRLTGKPGVCLVTSGPGTSNLATGLVTANAESDPVVALAGAVPRTDRLKRTHQSMDNAALFEPITKYSVEVEHPDNVPEALSNAFRSATSTNPGATLVSLPQDVMTAETTVESIGALSKPQLGIAPTHDITYVVEKIKAAKLPVILLGMRASTNEVTKAVRALIADTELPVVETYQAAGAISRELEDHFFGRVGLFRNQPGDILLEEADLVISIGYDPIEYDPKFWNKLGDRTIIHLDDHQADIDHDYQPERELIGDIALTVNSIAERLPKLVLSTKSEAVLERLRAKLSEQAEVPNRDSEGVTHPLQVIRTLRSLISDDTTVTCDIGSHSIWMARCFRSYEPRRLLFSNGMQTLGVALPWAIAATLVEPGKKVVSVSGDGGFLFSAMELETAVRLNSPIVHLVWRDGTYDMVAFQQMMKYGRTSATEFGDVDLVKYAESFGATGLRVNTPDELEGVLKSALAADGPVIIDIPIDYRDNIKLSEKLLPNQLN | not soluble |
| MSTIAKDQTQINDKIRAKELRLIGQDGEQIGVKSKREALEMAERVDLDLVVVAPNAKPPVARIMDYGKFKFEQQKKEKEMKKKQKIINVKEIRLSPTIEEHDFQTKLKNGRKFLTKGDKCKVSIRFRGRAITHKEIGQRVLEKYADECKDIATVEQKPKMDGRQMFIMLAPTAEK | not soluble |
| MSTKEIICTLKGQFFLSPREEKFLRLLEEMGIPEEDIQEGIRECLKSVSPKKRKNFPLFKCFSKILEVNKVRALERGKREHLDWKRVFERKVSVVKHLLDFNYTEPKTEEEAEKTLQEIERKIFKKLWENLDKERKREIYNKYKEVKEDEELFKELIKHELRKIFQIPVLSLYVD | not soluble |
| MSTKLTGYVWDGCAASGMKLSSVAIMARLADFSNDEGVCWPSIETIARQIGAGMSTVRTAIARLEAEGWLTRKARRQGNRNASNVYQLNVAKLQAAAFSQLSDSDPSKSDASKSDPSKFDASKSGKKAGFHPSESGGDPSVKSKHDPSDKKPSRPDSSQPDTQTAEQDFLTRHPDAVVFSPKKRQWGTQDDLTCAQWLWKKIIALYEQAAECDGEVVRPKEPNWTAWANEIRLMCVQDGRTHKQICEMYSRVSRDPFWCRNVLSPSKLREKWDELSLRLSPSVSTYTEKREDPYFKASYDNVDYSQIPAGFRG | not soluble |
| MSTKMTPPVEKNEFIDVVFEDLTHDGAGVAKVKGYPIFVKNGLPGEEAQIKIIKVKKNFAFGRLMKLHTESPYRKDAECPVYNQCGGCQLQHLTYEGQLQAKEKQVRDVMQRIGGLADVPVHPVLGMKNPWVYRNKAQVPIGEREGGLVAGFYRQGTHDIINMESCLIQAEENDTLIQEVKRICEKHGITAYNEERNKGTLRHVMARYGQVTGEIMLVFITRTAELPNKKAIIEEIAAKFPEVKSIVQNVNTKRTNVIFGDKTTVLYGSEYIYDFIGDIKFAISARSFYQVNPEQTKVLYDKTLEYAKLNGNETVIDAYCGIGSISLFLAQKAKKVYGVEIVPEAIEDANRNAALNNMTNAEFGVGEAEVVIPKWYKEGVIADTMVVDPPRKGCDEALLNTIIDMKPNRVVYVSCNPATLARDLKVLEEGGYKTQEVQPVDMFPHTTHVECVAWLKLV | not soluble |
| MSTNPFAILRLPESALRKSINQMGLMEQFSLSVLSNKTKHAVTMLPEVKNDVSITMTSSLELLLSNHSQDVDFIFEMDSHYPNVEIRQRFDNARCRFTQLSIPGFTVKHWIEHIVDVFCKNQGVALIFESIMRERFYELYEIIKNIKIVHLEPFSSQIQDYQRLTLFPSLEWLTVIGVDEAPIGTPILIQNFEGFIIFPNIQWKIDDVLISNFSNLRMWHRTFSVQDLNLFMRQWIKGSMPRLEEFDVILSHSNQHKLVETDLFKSIKYTVKENENCKINVIKRRDGAKASVCFGGKSSYEFHFTVESEPD | not soluble |
| MSTNPSQLVAADRIGFARLTKRAFDGENLYPLWQELMSKTDAGTATAGEQLDLALITQLFGHKQAGLSVQTETLKQQQLFRSPCASDNPRLRVLALAADIDMGGNTPIEFLLQDSGIELQTLYVIDGVPLPDPLPAHDVAIVIASDSDECMSALAAIEARVANWPAPLLNPPHLIRHLDRDKLYRLIGDIEGLEIPDTISVGRDTLVAAANGSATLPEVTGGVDFPIIVRPRGSHAGFGLARITDSVALLDYLRDRQESDYFIARYVDYASDDGQFRKYRVVVVDGKPYACHMAIANRWDIWYLNAGMAEDEVKRLEEAAFFHTFDFGFALRHKTALDGMIERIGLDYFTIDCAQTPRGDLLVFEIDNTAVVHDMDSPELYPYKPPQMHKIFDAFASMLERRVASRLTSVAAAALEHHHHHH | soluble |
| MSTPVLELRGIVKTFGATRALDGASLRVAAGSVHGLVGENGAGKSTLIKVLAGIHRPDAGSLLLDGQPHGHFSPRQVERLGIGFIHQERLLPARFTVGEALFFGHERRFGPLLDRRSQQREAARLLDDYFGLRLPANALIGELSSAEQQMVQIVRALLIKPRVLVFDEPSVALVQREVERLLRIVQRLRDDGLAIVYISHYLQEIEALCDRVTVLRNGRDVAEVSPRNTSLEQITRLMVNREVGELYPKVAVPAGALLLDVRGLGRARAYQGIDLQVRRGEIVGLTGLVGSGAKELLRSLFGLAPPDSGEVRLDGQPLSLRSPREAVAQGVALMPEERRRQGVALDLSVQENTTLAALSRFVRLGLLSPARERHTTLELIERLRIKAHGAHAKVRQLSGGNQQKVALAKWFARCSSLYLLDEPSVGIDVGAKVEIYRLIGELVKEGAGVLILSSDLPELIGLCDRIHVMHRGAIAARFAAGEANSDRLLAVATGAQRAQNEERPFYAYAIAI | not soluble |
| MSTSEMLELNRTIDRLRRAVGSLRSMYGDAASVRRLSNDLERLEIDARELDSSPPNVVHREPVERIKVSDTPYDASMWLGIDDEGLGGLHYERG | not soluble |
| MSTSHDRAVLNQILNPLMPTSDSGIAEIHLESDSLEHPGYELSLQLEREGVALAEGVRLDEAIEKFTKALEVCPKNPSAYNNRAQAYRLQNKPEKALDDLNEALSLAGPKTKTACQAYVQRASIYRLRGDDDKARTDFASAAELGSSFAKMQLVALNPYAAMCNKMLAEVFEKAKTGED | soluble |
| MSTSQPREQFLLISALGPNPMELTTLLCRACVESRCAVVSSRLTRHGEFSALVLQISGSWDALARLEGSLPALTKRGDITLSMTRSNAHVTRAQALPYVAYVSAVYRPDILNELCQFFIDHNIELENLTCDTYQAPHTNTTMLNATITVTLPAGTQISWLRDQFLDFADALNLDALIEPWRPQHP | not soluble |
